The supplement of paper PMC10126150
± gives the standard deviation of the averaged measurements.

System: ATP
Test: switch fluorescence ratio, 500 uM ATP over buffer (Cy3 cluster intensity, sum of 5 cycles each) (fold (ratio)); higher = stronger signal-on switching upon ATP binding; sequences stand for … in TCGTCGGCAGCGTCAGATGTGTATAAGAGACAGTTTTTTTTTTTTTTTTTTTTTTTTT…TC
Conditions: aptamer strand: ATP DNA aptamer (quencher-CACCTGGGGGAGTATTGCGGAGGAAGG + anchor), 100 nM annealed; ATP concentration: 500 uM
Method in brief: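 The fluorescence ratio divides summed target-cycle Cy3 intensity by summed buffer-cycle Cy3 intensity for each cluster and is averaged per switch-domain sequence. Cy3-labelled switching-strand clusters on a modified Illumina MiSeq flow-cell were annealed to 100 nM quencher-labelled ATP aptamer, then imaged in selection buffer and again after 15 min with 500 uM ATP at 22 °C. Five such cycles were run, with NaOH stripping and re-annealing between them, and clusters outside 100-1000 RFU were excluded.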
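Also: ATP exposure 15 min at 22 °C before imaging.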

Sequence	switch fluorescence ratio
TATGGGGGA	1.01 ± 0.069
TATGGGGGCT	1.04 ± 0.012
TATGGGTGCT	1.06 ± 0.046
TATGGGTTAA	1.01 ± 0.022
TATGGGTTGG	1.02 ± 0.04
TATGGTCGCT	1.03 ± 0.041
TATGGTGCG	0.984 ± 0.011
TATGGTGCTT	1.01 ± 0.032
TATGGTGTGC	1.02 ± 0.021
TATGGTTTAC	1 ± 0.017
TATGGTTTTT	0.996 ± 0.015
TATGTACACT	1.06 ± 0.053
TATGTAGGGG	1.09 ± 0.14
TATGTAGGTA	0.994 ± 0.047
TATGTATCGC	1.13 ± 0.15
TATGTCAGCT	1.01 ± 0.032
TATGTCTACA	0.9859 ± 0.0075
TATGTGAACT	0.9986 ± 0.0019
TATGTGAAGG	0.995 ± 0.015
TATGTGCAGG	0.995 ± 0.015
TATGTGCTGT	0.983 ± 0.011
TATGTGGACA	0.9964 ± 0.0047
TATGTGGAGG	0.97262 ± 0.00028
TATGTGGGCT	0.987 ± 0.021
TATGTGGGTC	1.02 ± 0.035

Sequence	switch fluorescence ratio
TATGTGTAAC	0.978 ± 0.02
TATGTGTGTT	0.9873 ± 0.0062
TATGTTAAC	1.02 ± 0.012
TATGTTAATG	0.999 ± 0.016
TATGTTAGTG	1.01 ± 0.042
TATGTTATGT	1.01 ± 0.052
TATGTTATTA	0.984 ± 0.039
TATGTTTGGG	0.986 ± 0.034
TATGTTTTGT	1.02 ± 0.041
TATGTTTTTT	0.997 ± 0.031
TATTAAAAAT	1.03 ± 0.047
TATTAAACTC	1.02 ± 0.017
TATTAACGTT	1.015 ± 0.0039
TATTAAGAGG	0.98 ± 0.018
TATTAAGCGA	1.05 ± 0.037
TATTAAGGGT	0.979 ± 0.029
TATTAAGGTT	0.978 ± 0.021
TATTAAGTGG	1.05 ± 0.071
TATTAATCGG	0.97 ± 0.056
TATTAATGAT	1.007 ± 0.01
TATTAATTC	0.972 ± 0.056
TATTAGAACT	1.017 ± 0.0064
TATTAGCTAT	0.998 ± 0.037
TATTAGGTA	1.01 ± 0.017
TATTAGTTTG	0.997 ± 0.024

Sequence	switch fluorescence ratio
TATTATATTT	1 ± 0.0046
TATTATGGGG	1.02 ± 0.034
TATTCAATTT	1 ± 0.021
TATTCAGGGT	1.01 ± 0.028
TATTCATGGT	1.025 ± 0.0057
TATTCCGTCC	1.1 ± 0.049
TATTCGATTC	1.04 ± 0.017
TATTCGGCTG	0.997 ± 0.029
TATTCTACCA	1.01 ± 0.011
TATTGAATGG	0.972 ± 0.03
TATTGAGGGA	1.017 ± 0.0031
TATTGATAAA	0.991 ± 0.058
TATTGATGGT	0.994 ± 0.019
TATTGCGATT	0.994 ± 0.018
TATTGGAGGT	0.981 ± 0.021
TATTGGGCTT	0.989 ± 0.018
TATTGGGGAA	0.978 ± 0.01
TATTGGGGGG	0.999 ± 0.025
TATTGGGTTC	0.965 ± 0.011
TATTGGTCAA	0.962 ± 0.017
TATTGGTGGG	0.9663 ± 0.008
TATTGTAGCT	1.01 ± 0.044
TATTGTTGGG	0.976 ± 0.03
TATTTAGGAA	0.9498 ± 0.0078
TATTTAGGGG	0.973 ± 0.022

Sequence	switch fluorescence ratio
TATTTAGTTT	1.01 ± 0.023
TATTTCCGGG	1.012 ± 0.0045
TATTTCTTTT	1.05 ± 0.11
TATTTGAATC	1.15 ± 0.24
TATTTGACG	1.02 ± 0.035
TATTTGAGCA	0.995 ± 0.026
TATTTGGAGG	0.992 ± 0.0044
TATTTGGCAT	1.036 ± 0.0029
TATTTGGGTC	0.98285 ± 0.00046
TATTTGGTTT	1 ± 0.017
TATTTGTACT	1 ± 0.013
TATTTGTGGG	0.9845 ± 0.0083
TATTTGTGTC	0.982 ± 0.057
TATTTGTGTG	0.998 ± 0.029
TATTTTAAAA	0.986 ± 0.022
TATTTTAGC	0.971 ± 0.034
TATTTTATTG	1.03 ± 0.02
TATTTTGAAG	1.07 ± 0.13
TATTTTGACG	0.9151 ± 0.0046
TATTTTGCCT	1.036 ± 0.01
TATTTTGCGT	1.002 ± 0.0024
TATTTTGGTT	0.999 ± 0.015
TATTTTGTAT	1 ± 0.019
TATTTTGTGG	0.984 ± 0.026
TATTTTTCTT	0.975 ± 0.041

Sequence	switch fluorescence ratio
TATTTTTGGA	0.981 ± 0.043
TATTTTTGGC	1.01 ± 0.018
TATTTTTGGG	0.99 ± 0.023
TATTTTTGTT	1.05 ± 0.074
TATTTTTTCT	0.994 ± 0.045
TATTTTTTTT	1.01 ± 0.043
TCAAAACTTG	1.01 ± 0.057
TCAAAAGTCG	1.03 ± 0.012
TCAAAAGTTG	1.04 ± 0.044
TCAAAATATT	1.006 ± 0.0065
TCAAAATGCT	1.09 ± 0.058
TCAAAATGTG	0.958 ± 0.015
TCAAACGCGT	1.01 ± 0.037
TCAAACGGGG	1 ± 0.045
TCAAACGTAG	0.9793 ± 0.0085
TCAAACTGTT	1.08 ± 0.025
TCAAAGAGGT	0.98204 ± 0.00058
TCAAAGGGTC	1 ± 0.088
TCAAAGTGTA	0.968 ± 0.064
TCAAATAGTT	0.997 ± 0.0026
TCAAATGGGC	0.9965 ± 0.0031
TCAACAGTTG	0.998 ± 0.011
TCAACCAATG	1.04 ± 0.0039
TCAACCGGGG	1.079 ± 0.0021
TCAACCGTTT	1.02 ± 0.065

Sequence	switch fluorescence ratio
TCAACGCAGG	1.19 ± 0.065
TCAACTATGG	0.989 ± 0.075
TCAACTGGAT	0.9502 ± 0.0053
TCAAGCACTT	1.25 ± 0.028
TCAAGCCCAT	1 ± 0.045
TCAAGCTCAT	0.974 ± 0.023
TCAAGGCACC	1.1 ± 0.023
TCAAGGTTCT	0.998 ± 0.014
TCAAGTGAGG	1.01 ± 0.011
TCAAGTGGCC	1.02 ± 0.037
TCAAGTTTGG	1.02 ± 0.018
TCAATAATCG	1.01 ± 0.055
TCAATAGAAT	1.06 ± 0.14
TCAATAGAGT	1.039 ± 0.0024
TCAATCTCCT	1.03 ± 0.088
TCAATGATTT	0.969 ± 0.022
TCAATGGGGA	0.998 ± 0.013
TCAATGTAGT	1 ± 0.058
TCAATTAACT	1.03 ± 0.013
TCAATTCGAG	0.9884 ± 0.009
TCAATTGTAA	1.05 ± 0.051
TCAATTTTGC	1.02 ± 0.034
TCAATTTTTT	0.993 ± 0.016
TCACAGCCTG	0.9973 ± 0.0019
TCACAGGGGG	1.14 ± 0.12

Sequence	switch fluorescence ratio
TCACATGGGA	0.976 ± 0.011
TCACCAGATT	1.017 ± 0.008
TCACCATTCA	1.052 ± 0.0059
TCACGTGGTA	1.02 ± 0.021
TCACTATACT	1.41 ± 0.085
TCACTGGGTA	0.995 ± 0.014
TCACTGGTTC	1.032 ± 0.0038
TCACTGTCGC	1.13 ± 0.07
TCACTGTTTC	1.011 ± 0.0076
TCACTTCAAT	1.033 ± 0.0099
TCACTTTGCG	0.984 ± 0.032
TCAGAAATAG	1.24 ± 0.15
TCAGAGGCTG	0.988 ± 0.015
TCAGAGGGGG	0.992 ± 0.036
TCAGAGTGTG	0.989 ± 0.019
TCAGATAAAT	1.27 ± 0.35
TCAGATTGCA	1.007 ± 0.0025
TCAGCGAAAT	0.99 ± 0.016
TCAGCGACTT	1.01 ± 0.031
TCAGCGGGGA	1.001 ± 0.0066
TCAGCGTACG	1.01 ± 0.014
TCAGCGTGTG	1.0181 ± 0.00046
TCAGGACTCG	0.982 ± 0.035
TCAGGATATG	0.988 ± 0.035
TCAGGCGTTT	0.996 ± 0.024

Sequence	switch fluorescence ratio
TCAGGGACAG	1.02 ± 0.021
TCAGGGCAGC	1.01 ± 0.019
TCAGGGCGAT	1.03 ± 0.026
TCAGGGGCTT	1.16 ± 0.28
TCAGGGGGAA	1.01 ± 0.024
TCAGGGGTTA	1.03 ± 0.031
TCAGGGGTTC	0.9918 ± 0.0084
TCAGGGTTGA	1.03 ± 0.044
TCAGGTCTGT	0.9958 ± 0.0074
TCAGTAATAA	1.345 ± 0.013
TCAGTAGGCT	1.043 ± 0.0032
TCAGTCATGT	0.992 ± 0.028
TCAGTTATTT	1.04 ± 0.055
TCAGTTGACT	1.011 ± 0.0055
TCAGTTGTTG	1 ± 0.045
TCAGTTTGAG	0.97806 ± 0.0007
TCAGTTTTAT	0.9726 ± 0.0074
TCATAAGTAT	0.995 ± 0.086
TCATAGCGCC	1.01 ± 0.045
TCATAGTTGG	0.979 ± 0.025
TCATAGTTGT	1.01 ± 0.051
TCATAGTTTT	1.01 ± 0.042
TCATATTATC	1 ± 0.029
TCATATTGGA	0.979 ± 0.015
TCATATTTGT	0.981 ± 0.019
